Data taken from paper PMC2884070 (Journal of hepatology, 2010).

Target: GST-CypA (cyclophilin A) (human, UniProt P62937 1-165)
Assay: radioligand binding

B1: full-length NS5A Con1-His (genotype 1b) (natural protein)
chain: SGSWLRDVWDWICTVLTDFKTWLQSKLLPRLPGVPFFSCQRGYKGVWRGDGIMQTTCPCGAQITGHVKNGSMRIVGPRTCSNTWHGTFPINAYTTGPCTPSPAPNYSRALWRVAAEEYVEVTRVGDFHYVTGMTTDNVKCPCQVPAPEFFTEVDGVRLHRYAPACKPLLREEVTFLVGLNQYLVGSQLPCEPEPDVAVLTSMLTDPSHITAETAKRRLARGSPPSLASSSASQLSAPSLKATCTTRHDSPDADLIEANLLWRQEMGGNITRVESENKVVILDSFEPLQAEEDEREVSVPAEILRRSRKFPRAMPIWARPDYNPPLLESWKDPDYVPPVVHGCPLPPAKAPPIPPPRRKRTVVLSESTVSSALAELATKTFGSSESSAVDSGTATASPDQPSDDGDAGSDVESYSSMPPLEGEPGDPDLSDGSWSTVSEEASEDVVCC
Kd: 126 µM

B2: full-length NS5A H77-His (genotype 1a) (natural protein)
chain: SGSWLRDIWDWICEVLSDFKTWLKAKLMPQLPGIPFVSCQRGYRGVWRGDGIMHTRCHCGAEITGHVKNGTMRIVGPRTCKNMWSGTFFINAYTTGPCTPLPAPNYKFALWRVSAEEYVEIRRVGDFHYVSGMTTDNLKCPCQIPSPEFFTELDGVRLHRFAPPCKPLLREEVSFRVGLHEYPVGSQLPCEPEPDVAVLTSMLTDPSHITAEAAGRRLARGSPPSMASSSASQLSAPSLKATCTANHDSPDAELIEANLLWRQEMGGNITRVESENKVVILDSFDPLVAEEDEREVSVPAEILRKSRRFAPALPVWARPDYNPLLVETWKKPDYEPPVVHGCPLPPPRSPPVPPPRKKRTVVLTESTLPTALAELATKSFGSSSTSGITGDNTTTSSEPAPSGCPPDSDVESYSSMPPLEGEPGDPDLSDGSWSTVSSGADTEDVVCC
Kd: 131 µM

B3: domain 2 of JFH-1 NS5A (domain or fragment)
chain: NTYDVDMVDANLLMEGGVAQTEPESRVPVLDFLEPMAEEESDLEPSIPSECMLPRSGFPRALPAWARPDYNPPLVESWRRPDYQPPTVAGCALP
Kd: 69 µM

B4: full-length NS5A JFH-1-His (genotype 2a) (natural protein)
chain: SGSWLRDVWDWVCTILTDFKNWLTSKLFPKLPGLPFISCQKGYKGVWAGTGIMTTRCPCGANISGNVRLGSMRITGPKTCMNTWQGTFPINCYTEGQCAPKPPTNYKTAIWRVAASEYAEVTQHGSYSYVTGLTTDNLKIPCQLPSPEFFSWVDGVQIHRFAPTPKPFFRDEVSFCVGLNSYAVGSQLPCEPEPDADVLRSMLTDPPHITAETAARRLARGSPPSEASSSVSQLSAPSLRATCTTHSNTYDVDMVDANLLMEGGVAQTEPESRVPVLDFLEPMAEEESDLEPSIPSECMLPRSGFPRALPAWARPDYNPPLVESWRRPDYQPPTVAGCALPPPKKAPTPPPRRRRTVGLSESTISEALQQLAIKTFGQPPSSGDAGSSTGAGAAESGGPTSPGEPAPSETGSASSMPPLEGEPGDPDLESDQVELQPPPQGGGVAPGSGSGSWSTCSEEDDTTVCC
Kd: 108 µM
